In assay [1] the target is T1, recombinant human IL1RAP ECD (human, UniProt Q9NPH3 21-367).
T1 construct: His-tagged; also called hIL1RAP-ECD; rhuIL1RAP
T1 sequence: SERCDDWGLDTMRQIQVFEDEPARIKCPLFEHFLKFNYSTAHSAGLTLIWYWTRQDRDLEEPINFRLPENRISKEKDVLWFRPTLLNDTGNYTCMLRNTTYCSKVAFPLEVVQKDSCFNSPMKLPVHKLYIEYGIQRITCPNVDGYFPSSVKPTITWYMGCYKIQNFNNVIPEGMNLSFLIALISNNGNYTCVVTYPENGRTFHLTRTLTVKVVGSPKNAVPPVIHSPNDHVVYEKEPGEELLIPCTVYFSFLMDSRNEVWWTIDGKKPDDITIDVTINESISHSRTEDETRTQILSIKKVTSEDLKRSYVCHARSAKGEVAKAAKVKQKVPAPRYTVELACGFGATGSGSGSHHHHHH
Description: SPR; human KD over cyno KD.

The target of assay [2] is T2, human IL1RAP on cells (endogenous) (human, UniProt Q9NPH3 21-570).
T2 sequence (looked up): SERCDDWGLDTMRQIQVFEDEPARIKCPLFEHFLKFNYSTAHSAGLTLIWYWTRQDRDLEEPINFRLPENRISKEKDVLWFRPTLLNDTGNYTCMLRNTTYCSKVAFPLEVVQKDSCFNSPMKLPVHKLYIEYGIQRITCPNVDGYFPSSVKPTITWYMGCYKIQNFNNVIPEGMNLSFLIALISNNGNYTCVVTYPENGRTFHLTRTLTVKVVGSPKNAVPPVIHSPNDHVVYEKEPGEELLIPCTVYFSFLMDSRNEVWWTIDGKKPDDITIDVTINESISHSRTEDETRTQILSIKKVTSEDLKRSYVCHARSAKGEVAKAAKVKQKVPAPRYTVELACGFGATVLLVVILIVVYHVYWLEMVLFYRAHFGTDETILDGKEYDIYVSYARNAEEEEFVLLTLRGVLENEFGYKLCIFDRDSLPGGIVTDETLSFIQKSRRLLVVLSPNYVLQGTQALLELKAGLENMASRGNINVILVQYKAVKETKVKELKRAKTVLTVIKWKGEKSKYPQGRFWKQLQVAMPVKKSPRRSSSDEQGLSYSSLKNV
The assay can be described thus: cell-based or functional assay.

Assay [3] deals with T3, recombinant cyno IL1RAP ECD (cynomolgus monkey, UniProt P59822 21-367 (rhesus entry)).
T3 construct: also called rcynoIL1RAP
T3 sequence: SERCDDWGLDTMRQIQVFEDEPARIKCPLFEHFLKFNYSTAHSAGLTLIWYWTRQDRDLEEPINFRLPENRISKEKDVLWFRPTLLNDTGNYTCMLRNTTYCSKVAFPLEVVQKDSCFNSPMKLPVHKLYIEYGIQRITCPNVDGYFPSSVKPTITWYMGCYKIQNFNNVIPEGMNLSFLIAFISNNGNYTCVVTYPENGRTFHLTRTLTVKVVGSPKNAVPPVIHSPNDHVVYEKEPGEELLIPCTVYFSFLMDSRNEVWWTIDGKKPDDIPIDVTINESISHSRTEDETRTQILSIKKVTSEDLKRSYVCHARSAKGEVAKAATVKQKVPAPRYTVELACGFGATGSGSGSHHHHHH
Description: SPR. (SPR reads the build-up and loss of mass on a sensor chip optically.)

Assay [4] has as its target T1, recombinant human IL1RAP ECD. The assay can be described thus: SPR.
Assay [5] has the same target. The assay can be described thus: SPR, summary.
Assay [6] has as its target T3, recombinant cyno IL1RAP ECD. The assay can be described thus: SPR, summary.
For assay [7], the target named is T1, recombinant human IL1RAP ECD. The assay can be described thus: SPR. The source holds these as a separate data set.
The target of assay [8] is T3, recombinant cyno IL1RAP ECD. The assay can be described thus: SPR. This is another data set of the same source.

As a reminder, the Kd is the concentration at which binding is half-saturated. What is called koff is the rate constant with which the complex falls apart. Broadly, the kon is the second-order rate constant of association.

B1: IC3B13 (bispecific antibody, human IgG4 S228P, lambda, F234A L235A)
heavy 1: EVQLVESGGGLVQPGGSLKLSCAASGFTFNTYAMNWVRQASGKGLEWVGRIRSKYNAYATYYAASVKGRFTISRDDSKNTAYLQMNSLKTEDTAVYYCTRHGNFGNSYVSWFAYWGQGTLVTVSSASTKGPSVFPLAPCSRSTSESTAALGCLVKDYFPEPVTVSWNSGALTSGVHTFPAVLQSSGLYSLSSVVTVPSSSLGTKTYTCNVDHKPSNTKVDKRVESKYGPPCPPCPAPEAAGGPSVFLFPPKPKDTLMISRTPEVTCVVVDVSQEDPEVQFNWYVDGVEVHNAKTKPREEQFNSTYRVVSVLTVLHQDWLNGKEYKCKVSNKGLPSSIEKTISKAKGQPREPQVYTLPPSQEEMTKNQVSLTCLVKGFYPSDIAVEWESNGQPENNYKTTPPVLDSDGSFLLYSKLTVDKSRWQEGNVFSCSVMHEALHNHYTQKSLSLSLGK
light 1: QAVVTQEPSLTVSPGGTVTLTCRSSTGAVTTSNYANWVQQKPGQAPRGLIGGTNKRAPGTPARFSGSLLGGKAALTLSGAQPEDEAEYYCALWYSNLWVFGGGTKLTVLGQPKAAPSVTLFPPSSEELQANKATLVCLISDFYPGAVTVAWKADSSPVKAGVETTTPSKQSNNKYAASSYLSLTPEQWKSHRSYSCQVTHEGSTVEKTVAPTECS
heavy 2: not shown
light 2: QSALTQPRSVSGSPGHSVTISCTGTSSDVGDYNYVSWYQQRPGKVPKLLIYDVSKRPSGVPDRFSGSKSGNTASLTISGLQAEDEAIYFCASYAGNYNVVFGGGTKLTVLGQPKAAPSVTLFPPSSEELQANKATLVCLISDFYPGAVTVAWKADSSPVKAGVETTTPSKQSNNKYAASSYLSLTPEQWKSHRSYSCQVTHEGSTVEKTVAPTECS
notes: IgG4-PAA, Fab arm exchange; also called IAPB63 x CD3B220
Regarding B1, in assay [1], the “Hu/Cyno KD Ratio” value came out at 0.3. For the same molecule, the “EC50, T-cell mediated cytotoxicity” value in assay [2] is 54 pM. The Kd in assay [3] worked out at 451 pM; in assay [4], 122 pM; in assay [5], 122 pM; in assay [6], 451 pM; in assay [7] it was 122 pM; in assay [8] it was 451 pM. Also, the results for the koff in assay [3] and in assay [4] were 0.000532 s⁻¹ and 0.000114 s⁻¹, respectively. In addition, the results for the kon in assay [3] and in assay [4] were 1.18e+06 M⁻¹ s⁻¹ and 938000 M⁻¹ s⁻¹, respectively.

B2: IC3B6 (bispecific antibody, human IgG4 S228P, kappa, lambda, F234A L235A)
heavy 1: EVQLVESGGGLVQPGGSLKLSCAASGFTFNTYAMNWVRQASGKGLEWVGRIRSKYNAYATYYAASVKGRFTISRDDSKNTAYLQMNSLKTEDTAVYYCTRHGNFGNSYVSWFAYWGQGTLVTVSSASTKGPSVFPLAPCSRSTSESTAALGCLVKDYFPEPVTVSWNSGALTSGVHTFPAVLQSSGLYSLSSVVTVPSSSLGTKTYTCNVDHKPSNTKVDKRVESKYGPPCPPCPAPEAAGGPSVFLFPPKPKDTLMISRTPEVTCVVVDVSQEDPEVQFNWYVDGVEVHNAKTKPREEQFNSTYRVVSVLTVLHQDWLNGKEYKCKVSNKGLPSSIEKTISKAKGQPREPQVYTLPPSQEEMTKNQVSLTCLVKGFYPSDIAVEWESNGQPENNYKTTPPVLDSDGSFLLYSKLTVDKSRWQEGNVFSCSVMHEALHNHYTQKSLSLSLGK
light 1: QAVVTQEPSLTVSPGGTVTLTCRSSTGAVTTSNYANWVQQKPGQAPRGLIGGTNKRAPGTPARFSGSLLGGKAALTLSGAQPEDEAEYYCALWYSNLWVFGGGTKLTVLGQPKAAPSVTLFPPSSEELQANKATLVCLISDFYPGAVTVAWKADSSPVKAGVETTTPSKQSNNKYAASSYLSLTPEQWKSHRSYSCQVTHEGSTVEKTVAPTECS
heavy 2: not shown
light 2: not shown
notes: IgG4-PAA, Fab arm exchange; also called IAPB3 x CD3B220
Regarding B2, in assay [1], the “Hu/Cyno KD Ratio” value was determined as 0.8. Moreover, the “EC50, T-cell mediated cytotoxicity” value in assay [2] stood at 490 pM. The Kd in assay [3] is 2990 pM; in assay [4] it was 2290 pM; in assay [5], 2290 pM; in assay [6], 2990 pM; in assay [7], 2290 pM; in assay [8] it was 2990 pM. The koff in assay [3] was 0.00054 s⁻¹; in assay [4], 0.000381 s⁻¹. The kon in assay [3] came out at 180000 M⁻¹ s⁻¹; in assay [4], 167000 M⁻¹ s⁻¹.

B3: IC3B3 (bispecific antibody, human IgG4 S228P, kappa, lambda, F234A L235A)
heavy 1: EVQLVESGGGLVQPGGSLKLSCAASGFTFNTYAMNWVRQASGKGLEWVGRIRSKYNAYATYYAASVKGRFTISRDDSKNTAYLQMNSLKTEDTAVYYCTRHGNFGNSYVSWFAYWGQGTLVTVSSASTKGPSVFPLAPCSRSTSESTAALGCLVKDYFPEPVTVSWNSGALTSGVHTFPAVLQSSGLYSLSSVVTVPSSSLGTKTYTCNVDHKPSNTKVDKRVESKYGPPCPPCPAPEAAGGPSVFLFPPKPKDTLMISRTPEVTCVVVDVSQEDPEVQFNWYVDGVEVHNAKTKPREEQFNSTYRVVSVLTVLHQDWLNGKEYKCKVSNKGLPSSIEKTISKAKGQPREPQVYTLPPSQEEMTKNQVSLTCLVKGFYPSDIAVEWESNGQPENNYKTTPPVLDSDGSFLLYSKLTVDKSRWQEGNVFSCSVMHEALHNHYTQKSLSLSLGK
light 1: QAVVTQEPSLTVSPGGTVTLTCRSSTGAVTTSNYANWVQQKPGQAPRGLIGGTNKRAPGTPARFSGSLLGGKAALTLSGAQPEDEAEYYCALWYSNLWVFGGGTKLTVLGQPKAAPSVTLFPPSSEELQANKATLVCLISDFYPGAVTVAWKADSSPVKAGVETTTPSKQSNNKYAASSYLSLTPEQWKSHRSYSCQVTHEGSTVEKTVAPTECS
heavy 2: not shown
light 2: DIQLTQSPSFLSASVGDRVTITCRASQGISSYLAWYQQKPGKAPKLLIYAASTLQSGVPSRFSGSGSGTEFTLTISSLQPEDFATYYCQQVNSYPLTFGGGTKVEIKRTVAAPSVFIFPPSDEQLKSGTASVVCLLNNFYPREAKVQWKVDNALQSGNSQESVTEQDSKDSTYSLSSTLTLSKADYEKHKVYACEVTHQGLSSPVTKSFNRGEC
notes: IgG4-PAA, Fab arm exchange; also called IAPB57 x CD3B220
For the molecule B3, in assay [1], the “Hu/Cyno KD Ratio” value stood at 0.4. For the same molecule, the “EC50, T-cell mediated cytotoxicity” value in assay [2] was determined as 131 pM. In addition, the Kd in assay [3] amounted to 86.1 pM; in assay [4], 34 pM; in assay [5], 34 pM; in assay [6], 86 pM; in assay [7], 34 pM; in assay [8] it was 86.1 pM. Moreover, the koff was 8.2e-05 s⁻¹ in assay [3] and 2.98e-05 s⁻¹ in assay [4]. Also, the results for the kon in assay [3] and in assay [4] were 952000 M⁻¹ s⁻¹ and 875000 M⁻¹ s⁻¹, respectively.

B4: IC3B14 (bispecific antibody, human IgG4 S228P, lambda, F234A L235A)
heavy 1: EVQLVESGGGLVQPGGSLKLSCAASGFTFNTYAMNWVRQASGKGLEWVGRIRSKYNAYATYYAASVKGRFTISRDDSKNTAYLQMNSLKTEDTAVYYCTRHGNFGNSYVSWFAYWGQGTLVTVSSASTKGPSVFPLAPCSRSTSESTAALGCLVKDYFPEPVTVSWNSGALTSGVHTFPAVLQSSGLYSLSSVVTVPSSSLGTKTYTCNVDHKPSNTKVDKRVESKYGPPCPPCPAPEAAGGPSVFLFPPKPKDTLMISRTPEVTCVVVDVSQEDPEVQFNWYVDGVEVHNAKTKPREEQFNSTYRVVSVLTVLHQDWLNGKEYKCKVSNKGLPSSIEKTISKAKGQPREPQVYTLPPSQEEMTKNQVSLTCLVKGFYPSDIAVEWESNGQPENNYKTTPPVLDSDGSFLLYSKLTVDKSRWQEGNVFSCSVMHEALHNHYTQKSLSLSLGK
light 1: QAVVTQEPSLTVSPGGTVTLTCRSSTGAVTTSNYANWVQQKPGQAPRGLIGGTNKRAPGTPARFSGSLLGGKAALTLSGAQPEDEAEYYCALWYSNLWVFGGGTKLTVLGQPKAAPSVTLFPPSSEELQANKATLVCLISDFYPGAVTVAWKADSSPVKAGVETTTPSKQSNNKYAASSYLSLTPEQWKSHRSYSCQVTHEGSTVEKTVAPTECS
heavy 2: not shown
light 2: QSALTQPRSVSGSPGHSVTISCTGTSSDVGDYNYVSWYQQRPGKVPKLLIYDVSKRPSGVPDRFSGSKSGNTASLTISGLQAEDEAIYFCSSYAGNYNVVFGGGTKLTVLGQPKAAPSVTLFPPSSEELQANKATLVCLISDFYPGAVTVAWKADSSPVKAGVETTTPSKQSNNKYAASSYLSLTPEQWKSHRSYSCQVTHEGSTVEKTVAPTECS
notes: IgG4-PAA, Fab arm exchange; also called IAPB64 x CD3B220
Consider B4, for which the “Hu/Cyno KD Ratio” value in assay [1] was found to be 0.2. In assay [2], the “EC50, T-cell mediated cytotoxicity” value is 100 pM. In addition, the Kd in assay [3] came out at 993 pM; in assay [4], 246 pM; in assay [5] it was 246 pM; in assay [6], 993 pM; in assay [7], 246 pM; in assay [8], 993 pM. Further, the results for the koff in assay [3] and in assay [4] were 0.000858 s⁻¹ and 0.000171 s⁻¹, respectively. Moreover, the kon in assay [3] was 864000 M⁻¹ s⁻¹; in assay [4], 695000 M⁻¹ s⁻¹.

The values above are taken from US20190270826A1 (Janssen / Centocor, published 2019).
